These results are taken from article PMC9406036, “The Catalytic Domain Mediates Homomultimerization of MT1-MMP and the Prodomain Interferes with MT1-MMP Oligomeric Complex Assembly” (Biomolecules, 2022).

Values joined by “and” are separate entries in the source; they are usually repeats but may differ in a detail not shown here. Identical values can stand only once.

This series deals with the molecule itself. The series is described as follows: SEC; preparative Sephacryl S-200 gel filtration (120 mL), IMAC-purified protein at about 1 mg/mL, 1 mL injected after a 0.22 µm filter, 50 mM Tris pH 7.4, 150 mM NaCl, 5 mM CaCl2, 10 µM CT1746; sizes from a calibration curve; fractions checked by SDS-PAGE. A general note: Size exclusion chromatography separates by hydrodynamic size, large species first.

B1: WT-Cat-L (catalytic domain with the linker of MT1-MMP), secreted without the prodomain (domain or fragment)
chain: not shown
notes: human MT1-MMP (MMP-14) catalytic domain with the linker; Found as monomer, dimer and higher multimers on gel filtration; also called Cat-L construct; source: Drosophila S2 insect cells, purified (IMAC, Sephacryl S-200)
By stoichiometry N is commonly meant the number of molecules, sites or subunits per partner or assembly. B1: the “stoichiometry N” value was 2 and > 3.
